# Measurements published in publication PMC8187709, “Structural basis for SARS-CoV-2 envelope protein recognition of human cell junction protein PALS1” (Nature Communications, 2021).
# B1: PALS1 PSG (PDZ, SH3 and GK domains; residues 236–675 with a deletion between 411–460) (domain or fragment, human, UniProt Q8N3R9 236-675, looked up)
# chain: PITDERVYESIGQYGGETVKIVRIEKARDIPLGATVRNEMDSVIISRIVKGGAAEKSGLLHEGDEVLEINGIEIRGKDVNEVFDLLSDMHGTLTFVLIPSQQIKPPPAKETVIHVKAHFDYDPSDDPYVPCRELGLSFQKGDILHVISQEDPNWWQAYREGDEDNQPLAGLVPGKEEILTYEEMSLYHQPANRKRPIILIGPQNCGQNELRQRLMNKEKDRFASAVPHTTRSRRDQEVAGRDYHFVSRQAFEADIAAGKFIEHGEFEKNLYGTSIDSVRQVINSGKICLLSLRTQSLKTLRNSDLKPYIIFIAPPSQERLRALLAKEGKNPKPEELREIIEKTREMEQNNGHYFDTAIVNSDLDKAYQELLRLINKLDTEPQWVPSTWLR
# modifications: covalently labeled with dye NT647 (in the MST measurement only)
# notes: PALS1, human cell junction protein; PDZ, SH3 and GK domains (PSG), residues 236–675, without the loop between the SH3 and GK domains (deletion between 411–460); codon-optimised synthetic gene in pET16-b; also called PASL1–PSG domains; source: E. coli BL21 (DE3) pLysS, purified (Ni-NTA, TEV cleavage, second Ni-NTA, SEC); not shown: 10x His, N-terminal, cleaved
# Key:
# [1] = target: the molecule itself; experiment: SEC; purified PSG on a TSKgel G3000SW column in 25 mM Tris pH 7.5, 100 mM NaCl, 1 mM TCEP
# [2] = target: B1; experiment: MST; […]; 50 mM Tris pH 7.5, 100 mM NaCl, 1 mM DTT, 1 mM EDTA, 0.05% Tween 20; 10 min at room temperature; […]; conditions: both partners purified
binder,measurement,setting,value
B1,stoichiometry N,[1],2
"VYSRVKNLNSSRVPDLLV (SARS-CoV-2 envelope (E) protein, 75 residues; also called E C-terminal peptide) [SARS-CoV-2 envelope (E) protein C-terminal 18-amino acid peptide (Ec18)]",Kd,[2],11.2 µM
